According to patent publication US20210324108A1 (Hoffmann-La Roche, published 2021):
One block for each binder: values may come before it.

Key:
[1] = molecular target: T1, human 4-1BB on Jurkat-hu4-1BB-NFκB-luc2 reporter cells (human, UniProt Q07011 24-255); experiment: cell-based or functional assay
[2] = molecular target: T1, human 4-1BB on Jurkat-hu4-1BB-NFκB-luc2 …; experiment: cell-based or functional assay; remark: listed apart in the source

T1 sequence (Q07011 24-255 limits assumed): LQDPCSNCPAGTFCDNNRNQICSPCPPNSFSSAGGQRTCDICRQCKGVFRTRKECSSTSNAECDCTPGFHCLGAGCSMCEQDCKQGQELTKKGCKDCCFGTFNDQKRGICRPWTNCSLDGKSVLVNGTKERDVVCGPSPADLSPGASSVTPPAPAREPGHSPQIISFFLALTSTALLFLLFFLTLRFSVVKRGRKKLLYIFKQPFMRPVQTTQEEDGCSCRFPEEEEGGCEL

EC50 of NFκB-luciferase activation in Jurkat-hu4-1BB-NFκB-luc2 cells with NIH/3T3-huFAP clone 19 [1]: 0.321 nM
area under the curve (AUC) of NFκB-luciferase activation in Jurkat-hu4-1BB-NFκB-luc2 cells with NIH/3T3-huFAP clone 19 [2]: 15500
B1: anti-4-1BB (20H4.9) huIgG1 P329GLALA antibody (antibody, V domains shown)
VH: QVQLQQWGAGLLKPSETLSLTCAVYGGSFSGYYWSWIRQSPEKGLEWIGEINHGGYVTYNPSLESRVTISVDTSKNQFSLKLSSVTAADTAVYYCARDYGPGNYDWYFDLWGRGTLVTVSS
VL: EIVLTQSPATLSLSPGERATLSCRASQSVSSYLAWYQQKPGQAPRLLIYDASNRATGIPARFSGSGSGTDFTLTISSLEPEDFAVYYCQQRSNWPPALTFGGGTKVEIK

EC50 of NFκB-luciferase activation in Jurkat-hu4-1BB-NFκB-luc2 cells with NIH/3T3-huFAP clone 19 [1]: 0.701 nM
area under the curve (AUC) of NFκB-luciferase activation in Jurkat-hu4-1BB-NFκB-luc2 cells with NIH/3T3-huFAP clone 19 [2]: 13000
B2: anti-4-1BB (20H4.9) huIgG4 (antibody, V domains shown)
VH: B1 VH
VL: B1 VL
